From FireProtDB (doi:10.1021/bi00231a002) come the findings set out here.

The conditions of this data set: Rhodobacter capsulatus (strain ATCC BAA-309 / NBRC 16581 / SB1003); pH 7.5; 20 °C; GdnHCl; CD; Tris-HCl 20 mM; NaCl 40 mM; whole UniProt chain shown.

B1: Cytochrome c2 wild type, P00094 (protein)
chain: MKISLTAATVAALVLAAPAFAGDAAKGEKEFNKCKTCHSIIAPDGTEIVKGAKTGPNLYGVVGRTAGTYPEFKYKDSIVALGASGFAWTEEDIATYVKDPGAFLKEKLDDKKAKTGMAFKLAKGGEDVAAYLASVVK
As to B1, the denaturant m value came to 1.65 kcal/mol/M, the “denaturant midpoint (higher = more stable)” value came to 4.51 M and the unfolding free energy was found to be 7.45 kcal/mol.
